This experiment concerns the target purified bovine arrestin3 (bovine, UniProt P32120 1-420). Nature of the experiment: pull-down.

Data on 2 molecules can be found in paper PMC2606909 (Molecular pharmacology, 2008).

The Kd is the constant that tells how readily two partners part at equilibrium.

purified bovine arrestin3, sequence (P32120 whole entry): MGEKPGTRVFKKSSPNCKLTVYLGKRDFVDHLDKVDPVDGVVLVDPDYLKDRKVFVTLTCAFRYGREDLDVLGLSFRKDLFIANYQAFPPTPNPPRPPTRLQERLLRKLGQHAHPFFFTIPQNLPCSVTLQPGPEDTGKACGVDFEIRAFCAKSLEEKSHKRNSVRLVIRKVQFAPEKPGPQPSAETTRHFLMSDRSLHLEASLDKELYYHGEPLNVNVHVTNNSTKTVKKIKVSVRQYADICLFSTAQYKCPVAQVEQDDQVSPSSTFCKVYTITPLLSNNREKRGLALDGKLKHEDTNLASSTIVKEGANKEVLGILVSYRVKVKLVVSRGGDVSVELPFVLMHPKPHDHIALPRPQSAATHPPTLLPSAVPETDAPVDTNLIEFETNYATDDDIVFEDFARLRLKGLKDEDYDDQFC

B1: GST-D3-IC2 (domain or fragment, rat, UniProt P19020 125-151, looked up)
chain: SIDRYTAVVMPVHYQHGTGQSSCRRVA
Regarding B1, the Kd stood at 1100 nM.

B2: GST-D2-IC2 (domain or fragment, rat, UniProt P61169 129-153, looked up)
chain: SIDRYTAVAMPMLYNTRYSSKRRVT
Molecule B2 had an equilibrium dissociation constant (Kd) of 242 nM.
